Measurements taken from patent US20250049896A1 (Regeneron, published 2025).
Changes are numbered by the printed parent chain. One block for each binder: values may come before it.

How the values were obtained:
[1] = molecular target: T1, mf TFRC ecto-mmh (REGN2054), monomeric monkey (cyno) Tfrc ectodomain with C-terminal myc-myc-hexahistidine tag (monkey (cyno), Macaca fascicularis, UniProt H9EXL1 89-760); test: SPR (Biacore), mAb captured on anti-human Fc, 100 nM mfTfR-mmh, 25 C
T1 construct: range 89-760; also called mfTfR-mmh; mfTFR-mmh
Protocol: (§1) Biacore binding kinetics assays were conducted for the interaction of 32 anti-human TfR IgG1 monoclonal antibodies from CHO supernatants with TfR reagents at 25° C.
(§2) Equilibrium dissociation constants (KD) for the interaction of anti-TfR monoclonal antibodies with human and fascicularis monkey TfR ecto domain recombinant proteins were determined using a real-time surface plasmon resonance (SPR) based Biacore S200 biosensor. All binding studies were performed in 10 mM HEPES, 150 mM NaCl, 3 mM EDTA, and 0.05% v/v surfactant Tween-20, pH 7.4 (HBS-EP) running buffer at […]. The Biacore CM5 sensor surface was first derivatized by amine coupling with a monoclonal mouse anti-human Fc antibody (REGN2567) followed by a step to capture anti-TfR monoclonal antibodies in CHO conditioned media. […] The dissociation of TfR bound to anti-TfR monoclonal antibodies was monitored for 3 minutes in HBS-EP running buffer. At the end of each cycle, the anti-TfR monoclonal antibodies capture surface was regenerated using a 12-sec injection of 20 mM H₃PO₄. The association rate (ka) and dissociation rate (kd) were determined by fitting the real-time binding sensorgrams to a 1:1 binding model with mass transport limitation using Scrubber 2.0 c software. The dissociation equilibrium constant (KD) and dissociative half-life (t½) were calculated from the kinetic rate constants as: […]

[2] = molecular target: T2, hmm.hTfRC (REGN2431), human transferrin receptor extracellular domain with hexahistidine-myc-myc tag (human, UniProt P02786 89-760); test: SPR (Biacore), mAb captured on anti-human Fc, 100 nM hTFR-mmh, 25 C
T2 construct: Monomeric recombinant protein, 79210 g/mol; also called hTFR-mmh; His-myc-myc-hTFRC ecto
Protocol: as §1, §2

T2 sequence (P02786 other isoform, or with tags, fused parts or gaps): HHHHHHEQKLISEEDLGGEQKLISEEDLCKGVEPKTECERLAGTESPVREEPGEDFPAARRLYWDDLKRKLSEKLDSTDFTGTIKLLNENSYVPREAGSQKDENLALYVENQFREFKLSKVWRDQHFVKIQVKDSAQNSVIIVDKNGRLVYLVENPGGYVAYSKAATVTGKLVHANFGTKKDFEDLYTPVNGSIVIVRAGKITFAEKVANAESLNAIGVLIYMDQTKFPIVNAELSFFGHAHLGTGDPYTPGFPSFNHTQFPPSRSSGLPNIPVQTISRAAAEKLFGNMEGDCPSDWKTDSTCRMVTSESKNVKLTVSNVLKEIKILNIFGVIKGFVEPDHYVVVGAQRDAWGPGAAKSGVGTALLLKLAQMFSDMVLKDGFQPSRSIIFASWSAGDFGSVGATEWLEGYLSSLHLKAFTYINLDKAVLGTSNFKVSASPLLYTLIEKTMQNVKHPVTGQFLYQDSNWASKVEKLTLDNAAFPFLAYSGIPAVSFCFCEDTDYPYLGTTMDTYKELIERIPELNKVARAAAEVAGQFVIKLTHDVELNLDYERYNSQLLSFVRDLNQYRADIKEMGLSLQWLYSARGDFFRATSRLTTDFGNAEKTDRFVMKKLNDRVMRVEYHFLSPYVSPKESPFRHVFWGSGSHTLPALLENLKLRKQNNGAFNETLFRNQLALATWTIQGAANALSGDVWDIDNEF
T1 sequence (chain, as listed by the source): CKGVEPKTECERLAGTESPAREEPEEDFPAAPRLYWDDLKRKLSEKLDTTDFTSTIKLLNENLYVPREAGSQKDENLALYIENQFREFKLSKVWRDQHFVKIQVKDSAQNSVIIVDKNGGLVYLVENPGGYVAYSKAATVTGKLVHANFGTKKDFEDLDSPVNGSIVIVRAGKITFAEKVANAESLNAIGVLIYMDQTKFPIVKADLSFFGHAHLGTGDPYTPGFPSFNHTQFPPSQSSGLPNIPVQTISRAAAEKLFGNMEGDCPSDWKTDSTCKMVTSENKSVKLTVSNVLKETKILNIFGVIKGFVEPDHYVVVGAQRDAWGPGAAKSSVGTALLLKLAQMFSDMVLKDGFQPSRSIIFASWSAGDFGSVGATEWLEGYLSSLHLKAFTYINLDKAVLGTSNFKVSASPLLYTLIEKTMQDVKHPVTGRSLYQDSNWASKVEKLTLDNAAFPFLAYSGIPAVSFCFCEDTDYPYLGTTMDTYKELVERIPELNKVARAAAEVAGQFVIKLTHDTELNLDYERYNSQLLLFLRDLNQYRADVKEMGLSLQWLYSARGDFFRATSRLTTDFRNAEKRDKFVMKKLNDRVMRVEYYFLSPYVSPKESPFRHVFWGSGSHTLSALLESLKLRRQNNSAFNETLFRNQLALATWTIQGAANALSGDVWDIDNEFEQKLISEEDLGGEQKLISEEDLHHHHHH

B1: 12798B (antibody, human IgG1, kappa, V domains shown)
VH: EVQLVESGGDLVQPGRSLRLSCAASGFTFDDYAMHWVRQAPGKGLEWVSGISWNSATRVYADSVKGRFTISRDNAKNFLYLQMNSLRSEDTALYHCAKDMDISLGYYGLDVWGQGTTVTVSS
VL: not shown
notes: Tested as bivalent human IgG1 from CHO primary supernatant; also called H1H12798B; REGN17507
- 100 nM Ag Bound (RU) [1]: 508 RU
- Kd [1]: 16.3 nM
- koff [1]: 0.00129 s⁻¹
- kon [1]: 79000 M⁻¹ s⁻¹
- t½ [1]: 9 min
- 100 nM Ag Bound (RU) [2]: 1150 RU
- Kd [2]: 0.387 nM
- koff [2]: 6.33e-05 s⁻¹
- kon [2]: 163000 M⁻¹ s⁻¹
- t½ [2]: 183 min

B3: 69331 (antibody, human IgG1, kappa, V domains shown)
VH: QVQLVESGGGVVQPGRSLRLSCIASGFTFSVYGIHWVRQAPGKGLEWMAVISHDGNIKHYADSVKGRFTISRDNSKNTLYLQINSLRTEDTAVYYCAKDTWNSLDTFDIWGQGTMVTVSS
VL: DIQLTQSPSSLSASVGDRVTITCWASQGISSYLAWYQQKPGKAPKLLIYAASTLQSGVPSRFSGSGSGTEFTLTISSLQPEDFATYYCQQLNSYPLTFGGGTKVEIKR
notes: Tested as bivalent human IgG1 from CHO primary supernatant
- 100 nM Ag Bound (RU) [1]: 26 RU
- Kd [1]: 20.5 nM
- koff [1]: 0.01 s⁻¹
- kon [1]: 489000 M⁻¹ s⁻¹
- t½ [1]: 1.2 min
- 100 nM Ag Bound (RU) [2]: 87 RU
- Kd [2]: 41 nM
- koff [2]: 0.00466 s⁻¹
- kon [2]: 114000 M⁻¹ s⁻¹
- t½ [2]: 2.5 min

B4: 69263 (antibody, human IgG1, kappa, V domains shown)
VH: EVQLVESGGGLVQPGRSLRLSCAVSGFTFDDYAMHWVRQAPGKGLEWVSGISWNSGTRGYADSVKGRFTISRDNAKNSLYLQMNSLRGEDTALYYCVKDITISPNYYGMDVWGQGTTVTVSS
VL: DIQMTQSPSSLSASVGDRVTITCRASQDISHYSAWYQQKPGKLPNLLIYAASTLQSGVPSRFSGSGSGTDFSLTTSSLQPEDVATYYCQKYNSVPLTFGGGTKVEIKR
notes: as for B3
- 100 nM Ag Bound (RU) [1]: 77 RU
- Kd [1]: 19.2 nM
- koff [1]: 0.00378 s⁻¹
- kon [1]: 197000 M⁻¹ s⁻¹
- t½ [1]: 3.1 min
- 100 nM Ag Bound (RU) [2]: 150 RU
- Kd [2]: 6.5 nM
- koff [2]: 0.00115 s⁻¹
- kon [2]: 177000 M⁻¹ s⁻¹
- t½ [2]: 10 min

Now those with a lower Kd [1], led by results:

- 100 nM Ag Bound (RU) [1]: 26 RU
- Kd [1]: 14.4 nM
- koff [1]: 0.00996 s⁻¹
- kon [1]: 691000 M⁻¹ s⁻¹
- t½ [1]: 1.2 min
- 100 nM Ag Bound (RU) [2]: 904 RU
- Kd [2]: 0.836 nM
- koff [2]: 0.000115 s⁻¹
- kon [2]: 138000 M⁻¹ s⁻¹
- t½ [2]: 100 min
B2: 31874B (antibody, human IgG1, kappa, V domains shown)
VH: EVQLVESGGGLVQPGGSLRLSCAASGFAFSSYAMTWVRQAPGKGLEWVSVISGTGGSTYYADSVKGRFTISRDNSKNTLYLQMNSLRAEDTAVYYCAKGGAARRMEYFQYWGQGTLVTVSS
VL: B4 VL with D28G, H31N, S33L, L43V, S72T, T75I, V94A
notes: Tested as bivalent human IgG1 from CHO primary supernatant; also called H1H31874B; REGN17517

- 100 nM Ag Bound (RU) [1]: 159 RU
- Kd [1]: 10.2 nM
- koff [1]: 0.000653 s⁻¹
- kon [1]: 64000 M⁻¹ s⁻¹
- t½ [1]: 17.7 min
- 100 nM Ag Bound (RU) [2]: 598 RU
- Kd [2]: 0.513 nM
- koff [2]: 4.19e-05 s⁻¹
- kon [2]: 81900 M⁻¹ s⁻¹
- t½ [2]: 276 min
B6: 12801B (antibody, human IgG1, kappa, V domains shown)
VH: EVQLLESGGALVQPGGSLRLSCAASGFTFTSYAMHWVRQAPGKGLEWVSSIRGSGGGTYSADSVKGRFTISRDNSRDTLYLQMNSVRAEDTAVYYCARSHDYGAFDFFDYWGQGTLVTVSS
VL: DIQMTQSPSSLSASVGDRVTITCRASQGIRTDLGWYQQKPGKAPKRLIYAASSLQSGVPSRFSGSGSGTEFTLTISSLRPEDFATFYCLQYNSYPLTFGGGTKVEIKR
notes: as for B3

- 100 nM Ag Bound (RU) [1]: 634 RU
- Kd [1]: 8.11 nM
- koff [1]: 0.000723 s⁻¹
- kon [1]: 89200 M⁻¹ s⁻¹
- t½ [1]: 16 min
- 100 nM Ag Bound (RU) [2]: 999 RU
- Kd [2]: 0.429 nM
- koff [2]: 6.23e-05 s⁻¹
- kon [2]: 144000 M⁻¹ s⁻¹
- t½ [2]: 185 min
B7: 69340 (antibody, human IgG1, kappa, V domains shown)
VH: EVQLVESGGGLVQPGRSLRLSCAASGFTFDDKAMHWVRQVPGKGLEWISGISWNSGTIGYADSVKGRFIISRDNAKNSLYLQMNSLRAEDTALYYCAKDGDTSGWYWYGLDVWGQGTTVTVSS
VL: EIVLTQSPATLSLSPGERATLSCRASQSVSSYLAWYQQKPGQAPRLLIHDVSNRATGIPARFSGSGSGTDFTLTISSLEPEDFVVYYCQQRSDWPITFGQGTRLEIKR
notes: as for B3

- 100 nM Ag Bound (RU) [1]: 433 RU
- Kd [1]: 4.8 nM
- koff [1]: 0.000461 s⁻¹
- kon [1]: 96000 M⁻¹ s⁻¹
- t½ [1]: 25.1 min
- 100 nM Ag Bound (RU) [2]: 680 RU
- Kd [2]: 1.62 nM
- koff [2]: 0.000172 s⁻¹
- kon [2]: 106000 M⁻¹ s⁻¹
- t½ [2]: 67.2 min
B5: 69348 (antibody, human IgG1, kappa, V domains shown)
VH: QVQLVESGGGVVQPGRSLRLSCAASGFTFTTYGMHWVRQAPGKGLEWVAVIWYDGSNKYYGDSVKGRFTISRDNSKNTLYLQMNSLRVDDTAVYYCTRTHGYTRSSDGFDYWGQGTLVTVSS
VL: B6 VL with G28S, T31N, D32V, Y36F, K45Q, R79Q, F86Y, Y91H, S93F
notes: as for B3
